Results on four proteins are retold here after patent US10731187B2, “Recombinant strain producing O-aminobenzoate and fermentative production of aniline from renewable resources via 2-aminobenzoic acid” (Covestro Deutschland AG, priority 2014, dated 2020).

Details in all cases: other: raw extract (cell lysate), 25 °C, 20 mM L-glutamine, 10 mM MgCl2, chorismate as substrate
Substrate in series [1]: C=C(O[C@@H]1C=C(C(=O)O)C=C[C@H]1O)C(=O)O
Kind of series: cells, lysate or membranes.

Substrate in series [2]: C=C(O[C@@H]1C=C(C(=O)O)C=C[C@H]1O)C(=O)O
As to the kind of experiment: Anthranilate synthase activity in cell lysate of C. glutamicum ΔtrpD/pEKEx2-trpEG^S38R (KM and vmax). Format: biochemical, Corynebacterium glutamicum ATCC 13032. The text has this:
(§1) In more specific embodiments of the recombinant microbial host cell of invention, the Corynebacterium glutamicum microbial host cell, preferably Corynebacterium glutamicum ATCC 13032, can further overexpress one or more of the genes selected from the group consisting of galP (SEQ ID NO: 30), iolT2 (SEQ ID NO: 31), ppgk (SEQ ID NO: 32), pps (SEQ ID NO: 33-35), ppk (SEQ ID NO: 36), zwfl (SEQ ID NO: 37), opcA (SEQ ID NO: 38-39), tktCg (SEQ ID NO: 40), tktEc (SEQ ID NO: 41), talCg (SEQ ID NO: 42), tame (SEQ ID NO: 43), a gene encoding TrpEGS38F (trpEG^S38F, SEQ ID NO: 50), a gene encoding TrpEGS38R (trpEG^S38R, SEQ ID NO: 51), a gene encoding TrpEGS40R (trpEG^S40R, SEQ ID NO: 52), a gene encoding TrpEGS40F (trpEG^S40F, SEQ ID NO: 53), the gene encoding AroGD146N (aroG^D146N, SEQ ID NO: 55), aroL of Escherichia coli LJ110 (SEQ ID NO: 93), aroK (SEQ ID NO: 94), glnA (SEQ ID NO: 95), and qsuA (SEQ ID NO: 96). […]

Substrate in series [3]: C=C(O[C@@H]1C=C(C(=O)O)C=C[C@H]1O)C(=O)O
As to the kind of experiment: Anthranilate synthase activity in cell lysate of C. glutamicum ΔtrpD/pEKEx2-trpEG^S38F (KM and vmax). Format: biochemical, Corynebacterium glutamicum ATCC 13032.
Source text: as §1

Substrate in series [4]: C=C(O[C@@H]1C=C(C(=O)O)C=C[C@H]1O)C(=O)O
As to the kind of experiment: Anthranilate synthase activity in cell lysate of C. glutamicum ΔtrpD/pEKEx2-trpEG^S40F (KM and vmax). Format: biochemical, E. coli.
Source text: as §1

Positions count from the first letter of the chain named. Names and notes keep the numbering of the source.

B1: Corynebacterium glutamicum ATCC 13032 TrpEG (anthranilate synthase), natural (wild type, Cgl3029/31) (Corynebacterium glutamicum ATCC 13032) (protein)
chain: MSTNPHVFSLDVRYHEDASALFAHLGGTTADDAALLESADITTKNGISSLAVLKSSVRITCTGNTVVTQPLTDSGRAVVARLTQQLGQYNTAENTFSFPASDAVDERERLTAPSTIEVLRKLQFESGYSDASLPLLMGGFAFDFLETFETLPAVEESVNTYPDYQFVLAEIVLDINHQDQTAKLAGVSNAPGELEAELNKLSLLIDAALPATEHAYQTTPHDGDTLRVVADIPDAQFRTQINELKENIYNGDIYQVVPARTFTAPCPDAFAAYLQLRATNPSPYMFYIRGLNEGRSYELFGASPESNLKFTAANRELQLYPIAGTRPRGLNPDGSINDELDIRNELDMRTDAKEIAEHTMLVDLARNDLARVSVPASRRVADLLQVDRYSRVMHLVSRVTATLDPELDALDAYRACMNMGTLTGAPKLRAMELLRGVEKRRRGSYGGAVGYLRGNGDMDNCIVIRSAFVQDGVAAVQAGAGVVRDSNPQSEADETLHKAYAVLNAIALAAGSTLEVIR
For B1, in series [1], the Km turned out to be 11.4 µmol and the Vmax worked out at 0.0127 µmol/min/mg.

B2: Corynebacterium glutamicum TrpEG (anthranilate synthase) variant TrpEGS38R, mutation S38R (SEQ ID NO: 51 in b85; SEQ ID No. 52-53 in b196) (Corynebacterium … (protein)
chain: B1 chain with S38R
In the case of B2, in series [2], the Km came out at 21.6 µmol and the Vmax was determined as 0.231 µmol/min/mg.

B3: Corynebacterium glutamicum TrpEG (anthranilate synthase) variant TrpEGS38F, mutation S38F (SEQ ID NO: 50 in b85; SEQ ID No. 52-53 in b196) (Corynebacterium … (protein)
chain: B1 chain with S38F
As for B3, in series [3], the Km amounted to 16.2 µmol and the Vmax stood at 0.0688 µmol/min/mg.

B4: E. coli TrpEG (anthranilate synthase) variant TrpEGS40F, mutation S40F (SEQ ID NO: 53 in b85; SEQ ID No. 50-51 in b196) (Escherichia coli K-12; S40F) (protein)
chain: MQTQKPTLELLTCEGAYRDNPTALFHQLCGDRPATLLLEFADIDSKDDLKSLLLVDSALRITALGDTVTIQALSGNGEALLALLDNALPAGVESEQSPNCRVLRFPPVSPLLDEDARLCSLSVFDAFRLLQNLLNVPKEEREAMFFGGLFSYDLVAGFEDLPQLSAENNCPDFCFYLAETLMVIDHQKKSTRIQASLFAPNEEEKQRLTARLNELRQQLTEAAPPLPVVSVPHMRCECNQSDEEFGGVVRLLQKAIRAGEIFQVVPSRRFSLPCPSPLAAYYVLKKSNPSPYMFFMQDNDFTLFGASPESSLKYDATSRQIEIYPIAGTRPRGRRADGSLDRDLDSRIELEMRTDHKELSEHLMLVDLARNDLARICTPGSRYVADLTKVDRYSYVMHLVSRVVGELRHDLDALHAYRACMNMGTLSGAPKVRAMQLIAEAEGRRRGSYGGAVGYFTAHGDLDTCIVIRSALVENGIATVQAGAGVVLDSVPQSEADETRNKARAVLRAIATAHHAQETF
As to B4, the Vmax in series [4] turned out to be 0.427 µmol/min/mg.
